Assays:
Format in all cases: cell-based
[1] = tested on: mouse iPS cells; assay: flow cytometry analysis of Nanog-GFP positive cell population
Procedure: In the present example, the above-described DMEM to which the LIF and mouse recombinant CCL2 (MCP-1, #479-JE-010, R&D Systems) had been added was used. In the medium, the final concentration of the LIF was set to 25 units/ml, and the concentration of the recombinant CCL2 was set to 500 ng/ml. The amount of the medium to be added to a 12-well dish was set to 1 ml per well. On the other hand, in a comparative example, the above-described DMEM containing the LIF but not containing the CCL2 was used. The final concentration of the LIF was set to 25 units/ml.
The mouse iPS cells cultured under feeder free conditions were cultured in the medium of the example and the medium of the comparative example, respectively. The mouse iPS cells were seeded in the 12-well dish at a density of 6×10^4 cells/well.
The flow cytometry analysis was carried out in the following manner. After the mouse iPS cells had been cultured in the above described manner, the cells were collected from the wells, and were suspended again in an ES medium containing 25 units/ml of LIF. As the ES medium, a DMEM (containing glucose at a high concentration and containing no sodium pyruvate) containing 15% FBS, 0.1 mmol/l NEAA, and 0.1 mmol/l 2-Mercaptoethanol was used. Then, this cell suspension was applied to a flow cytometer (trade name: BD FACSAria (registered trademark) II, Becton, Dickinson and Company), and analyzed in accordance with the protocol of the flow cytometer. At this time, as a cell population having pluripotency, i.e., undifferentiated cell population, a Nanog-GFP-positive region sorted out based on FITC-A>10^4 was monitored. The raw data was analyzed by a program (FlowJo, ver. 7), and plotted in the form of density plot. The iPS cells were produced from MEF of a modified mouse with a GFP protein being incorporated in the promoter region of the Nanog gene. Thus, when the cells expressed the Nanog gene, it means the cells were Nanog-GFP positive, so that the GFP was produced and this GFP was detected by the FACS. […]

[2] = tested on: KLF4; assay: KLF4/GAPDH ratio in human iPS cells; settings: feeder conditions, 6 days, negative control (bFGF) = 1
Procedure: Then, the ratio of the phosphorylated AKT to the non-phosphorylated AKT (p-AKT/AKT) was determined. Assuming that the value of the p-AKT/AKT in the negative control was “1”, the relative value was calculated. Also, the ratio of the KLF4 gene expression to the GAPDH gene expression (KLF4/GAPDH) was determined. Assuming that KLF4/GAPDH in the negative control was “1”, the relative value was calculated.
Also, the ratio of KLF4 to GAPDH (KLF4/GAPDH) was determined. Assuming that KLF4/GAPDH in the negative control was “1”, the relative value was calculated. FIG. 15D is a graph showing the relative value of the ratio of KLF4 to GAPDH (KLF4/GAPDH).

[3] = tested on: human iPS cells; assay: differentiation of EBs to myocardial cells, morphology and Tropomyosin immunostaining; settings: 10th day from the plating; CCL2(+)/LIF(+) or CCL2(-)/bFGF(+) 5 ng/ml
Excerpt: It has been reported that, in general, according to the spontaneous differentiation-inducing method used in the above item (1), differentiation into myocardial cells is more liable to occur. Thus, regarding the cells on the 10th day from the plating in the above item (1), differentiation into myocardial cells was examined.
The morphology of the cells was examined with a microscope. Furthermore, they were immunostained with a Tropomyosin, which is a marker for myocardial cells. Also, culture of the cells, observation of the morphology, and staining were carried out in the same manner as in the above using a medium to which bFGF (5 ng/ml) has been added instead of the CCL2 and LIF.
The photographs in FIG. 19 show the morphologies of the cells on the 10th day from the plating of EB. […] Furthermore, in FIGS. 19A and 19B, the photographs on the left show the cell morphologies, and the photographs on the right show the stained cells. In the black and white photographs of FIG. 19, the stained portions are seen as light gray.

[4] = tested on: human iPS cells; assay: EB formation and spontaneous differentiation, cell morphology; settings: third day from the plating; iPS cells precultured 6 days with the substance
Procedure: Human iPS cells were cultured for 6 days under feeder conditions in the same manner as in Example 7. Thereafter, embryonic bodies (EBs) were produced. EB formation is known as a spontaneous differentiation-inducing method for inducing the differentiation of iPS cells. Specifically, first, a ROCK inhibitor (Y-27632, WAKO) was added to the culture solution being used for the culture of the human iPS cells so that the concentration thereof was […], and the human iPS cells were cultured for 1 hour under the conditions of 37° C. and 5% CO2. Then, the feeder cells used for the culture were dissociated with a human ES/iPS cell dissociation solution (CTK solution), and the human iPS cells were collected. Then, 1×10^6 of the human iPS cells were seeded in an ultra-low adhesion culture vessel, and cultured for 6 days in an EB preparation medium (DMEM/F12, Knockout SR, L-glutamine, NEAA (non-essential amino acid (GIBCO)), 2-ME, Pen/Strep). The medium was replaced every two days.
Next, spontaneous differentiation was induced. Specifically, the produced EBs were seeded in gelatin coated dishes so that each gelatin coated dish contained one EB. Each EB was cultured for 14 days in a medium (DMEM) containing 20% FBS, and then observed with a microscope. The medium was replaced every two days. The photographs in FIG. 18 show the cell morphology on the third day from the plating.

B1: CCL2: mouse recombinant CCL2 (MCP-1, #479-JE-010, R&D Systems); in Examples 1, 3, 4(1), 5 mouse CCL2 (SEQ ID NO: 3) overexpressed from Ccl2 expression vector (protein, listed as Mus musculus)
chain: MQVPVMLLGLLFTVAGWSIHVLAQPDAVNAPLTCCYSFTSKMIPMSRLESYKRITSSRCPKEAVVFVTKLKREVCADPKKEWVQTYIKNLDRNQMRSEPTTLFKTASALRSSAPLNVKLTRKSEANASTTFSTTTSSTSVGVTSVTVN
proportion of the Nanog-GFP positive mouse iPS cells ([1]; CCL2 500 ng/ml, LIF 25, 50, 100, 500 and 1000 units/ml, versus no CCL2): increased
proportion of the Nanog-GFP positive mouse iPS cells ([1]; recombinant CCL2 500 ng/ml + LIF 25 units/ml, feeder free, 24 hours, comparative medium (LIF only) 37.6%): 67.3%
number of undifferentiated cells having pluripotency (Nanog-GFP positive) ([1]; recombinant CCL2 500 ng/ml added to PI3K inhibitor 5 ng/ml + LIF 25 units/ml): further increase
KLF4 expression (KLF4/GAPDH), relative value [2]: about 1.7 fold
cell morphology of EBs, differentiation into myocardial cells [3]: most of them exhibited myocardial cell-like morphology
staining with Tropomyosin (marker for myocardial cells) [3]: entirely stained red
morphology of EB after spontaneous differentiation-inducing culture [4]: ES cell-like morphology

Source: patent US20140017790A1, “CONTROL AGENT FOR CONTROLLING UNDIFFERENTIATED STATE AND USE THEREOF” (RIKEN, priority 2011, published 2014)
